The supplement of paper PMC9112550, “Optimization of the antimicrobial peptide Bac7 by deep mutational scanning” (BMC Biology, 2022)

Tested on: Escherichia coli TOP10
Assay: shrunken log2 fold change of peptide-encoding DNA abundance (4.5 h post-induction vs induction); higher = less antimicrobial activity (less host growth inhibition)
Conditions: time post-induction: 4.5 h; library: site-saturation at positions 5, 18, 19, 20
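Also: peptides expressed intracellularly from a pBAD plasmid library in pooled LB shake-flask culture, induced with 0.3% L-arabinose, DNA abundance read by NGS, three biological replicates, DESeq2 with apeglm shrinkage.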

| Sequence | shrunken log2 fold change |
| --- | --- |
| RRIRWRPPRLPRPRPRPLQTPRP | 0.957 |
| RRIRVRPPRLPRPRPRPEWVPRP | 0.23 |
| RRIRGRPPRLPRPRPRPTQPPRP | 1.12 |
| RRIRVRPPRLPRPRPRPELMPRP | -0.0669 |
| RRIRCRPPRLPRPRPRPLKDPRP | -0.0917 |
| RRIRARPPRLPRPRPRPMTYPRP | -0.086 |
| RRIRPRPPRLPRPRPRPWGSPRP | 0.216 |
| RRIRDRPPRLPRPRPRPMPHPRP | -0.0342 |
| RRIRKRPPRLPRPRPRPTERPRP | 0.306 |
| RRIRERPPRLPRPRPRPPYHPRP | -0.456 |
| RRIRNRPPRLPRPRPRPRDYPRP | -0.0159 |
| RRIRTRPPRLPRPRPRPMIDPRP | -0.246 |
| RRIRYRPPRLPRPRPRPEATPRP | 0.28 |
| RRIRLRPPRLPRPRPRPKLHPRP | 0.108 |
| RRIRTRPPRLPRPRPRPRYQPRP | -0.0799 |
| RRIRNRPPRLPRPRPRPDKFPRP | -0.188 |
| RRIRKRPPRLPRPRPRPIWWPRP | 0.0844 |
| RRIRLRPPRLPRPRPRPTYIPRP | -0.304 |
| RRIRMRPPRLPRPRPRPKYRPRP | 0.0666 |
| RRIRSRPPRLPRPRPRPFNYPRP | 0.0477 |
| RRIRNRPPRLPRPRPRPFMVPRP | -0.646 |
| RRIRNRPPRLPRPRPRPIGVPRP | 0.249 |
| RRIRKRPPRLPRPRPRPWVHPRP | -0.0825 |
| RRIRNRPPRLPRPRPRPQFRPRP | 0.00019 |
| RRIRGRPPRLPRPRPRPCDIPRP | -0.00533 |

| Sequence | shrunken log2 fold change |
| --- | --- |
| RRIRSRPPRLPRPRPRPQWGPRP | -0.0633 |
| RRIRCRPPRLPRPRPRPVDKPRP | -0.184 |
| RRIRMRPPRLPRPRPRPDVIPRP | -0.0756 |
| RRIRFRPPRLPRPRPRPIMYPRP | -0.33 |
| RRIRARPPRLPRPRPRPKAYPRP | 0.088 |
| RRIRHRPPRLPRPRPRPAASPRP | 0.144 |
| RRIRERPPRLPRPRPRPPAQPRP | 0.0318 |
| RRIRVRPPRLPRPRPRPWNYPRP | -0.0949 |
| RRIRERPPRLPRPRPRPWLHPRP | -0.262 |
| RRIRKRPPRLPRPRPRPNREPRP | 0.0158 |
| RRIRRRPPRLPRPRPRPWGFPRP | 0.315 |
| RRIRNRPPRLPRPRPRPGSVPRP | -0.0436 |
| RRIRFRPPRLPRPRPRPPPHPRP | 1.37 |
| RRIRIRPPRLPRPRPRPVVFPRP | 0.0165 |
| RRIRDRPPRLPRPRPRPKLWPRP | 0.527 |
| RRIRHRPPRLPRPRPRPFWEPRP | -0.218 |
| RRIRLRPPRLPRPRPRPIVPPRP | 0.0358 |
| RRIRFRPPRLPRPRPRPWCKPRP | -0.0278 |
| RRIRGRPPRLPRPRPRPNQDPRP | 0.0491 |
| RRIRSRPPRLPRPRPRPEGAPRP | 1.95 |
| RRIRPRPPRLPRPRPRPHFGPRP | 0.0675 |
| RRIRQRPPRLPRPRPRPSEDPRP | -0.0593 |
| RRIRNRPPRLPRPRPRPMAEPRP | 0.0284 |
| RRIRLRPPRLPRPRPRPTSPPRP | -0.0576 |
| RRIRHRPPRLPRPRPRPNGSPRP | -0.0827 |

| Sequence | shrunken log2 fold change |
| --- | --- |
| RRIRVRPPRLPRPRPRPRDNPRP | -0.109 |
| RRIRYRPPRLPRPRPRPTLIPRP | -0.743 |
| RRIRCRPPRLPRPRPRPNWKPRP | 0.0151 |
| RRIRFRPPRLPRPRPRPSTRPRP | -0.013 |
| RRIRCRPPRLPRPRPRPLKKPRP | -0.26 |
| RRIRFRPPRLPRPRPRPGLQPRP | -0.18 |
| RRIRHRPPRLPRPRPRPWQIPRP | -0.453 |
| RRIRARPPRLPRPRPRPALMPRP | 0.534 |
| RRIRGRPPRLPRPRPRPVVVPRP | 0.985 |
| RRIRRRPPRLPRPRPRPNAIPRP | -0.116 |
| RRIRHRPPRLPRPRPRPMDEPRP | -0.204 |
| RRIRKRPPRLPRPRPRPDCYPRP | 0.012 |
| RRIRLRPPRLPRPRPRPNIVPRP | -0.00437 |
| RRIRRRPPRLPRPRPRPAQAPRP | 0.233 |
| RRIRFRPPRLPRPRPRPNVDPRP | -0.0445 |
| RRIRARPPRLPRPRPRPICNPRP | 0.176 |
| RRIRSRPPRLPRPRPRPSKTPRP | -0.159 |
| RRIRTRPPRLPRPRPRPMSRPRP | -0.361 |
| RRIRLRPPRLPRPRPRPLWFPRP | -0.543 |
| RRIRWRPPRLPRPRPRPITYPRP | -0.828 |
| RRIRARPPRLPRPRPRPWIPPRP | -0.161 |
| RRIRWRPPRLPRPRPRPDTLPRP | -0.134 |
| RRIRMRPPRLPRPRPRPGCSPRP | 0.815 |
| RRIRIRPPRLPRPRPRPMKKPRP | 0.0138 |
| RRIRDRPPRLPRPRPRPQVFPRP | -0.101 |

| Sequence | shrunken log2 fold change |
| --- | --- |
| RRIRTRPPRLPRPRPRPPHNPRP | 0.0332 |
| RRIRCRPPRLPRPRPRPTASPRP | 0.266 |
| RRIRPRPPRLPRPRPRPIGCPRP | -0.0888 |
| RRIRQRPPRLPRPRPRPCAFPRP | -0.254 |
| RRIRNRPPRLPRPRPRPFRSPRP | 0.033 |
| RRIRNRPPRLPRPRPRPWLSPRP | 0.0232 |
| RRIRWRPPRLPRPRPRPCWNPRP | 0.11 |
| RRIRKRPPRLPRPRPRPCPVPRP | -0.106 |
| RRIRTRPPRLPRPRPRPHELPRP | -0.125 |
| RRIRYRPPRLPRPRPRPSQNPRP | -0.874 |
| RRIRCRPPRLPRPRPRPWQFPRP | -0.0402 |
| RRIRYRPPRLPRPRPRPQSVPRP | -0.11 |
| RRIRARPPRLPRPRPRPRHSPRP | -0.00589 |
| RRIRGRPPRLPRPRPRPMHNPRP | 0.383 |
| RRIRVRPPRLPRPRPRPPIWPRP | -0.109 |
| RRIRSRPPRLPRPRPRPYDMPRP | -0.122 |
| RRIRPRPPRLPRPRPRPVYRPRP | -0.166 |
| RRIRPRPPRLPRPRPRPRDMPRP | 0.201 |
| RRIRRRPPRLPRPRPRPLFMPRP | 0.0797 |
| RRIRCRPPRLPRPRPRPVVRPRP | -0.356 |
| RRIRPRPPRLPRPRPRPTWTPRP | 0.071 |
| RRIRDRPPRLPRPRPRPPNTPRP | 0.0945 |
| RRIRSRPPRLPRPRPRPGMVPRP | 0.23 |
| RRIRYRPPRLPRPRPRPRIHPRP | -0.287 |
| RRIRFRPPRLPRPRPRPFEWPRP | -0.0458 |

| Sequence | shrunken log2 fold change |
| --- | --- |
| RRIRHRPPRLPRPRPRPYEGPRP | -0.0203 |
| RRIRGRPPRLPRPRPRPCQIPRP | -0.0259 |
| RRIRQRPPRLPRPRPRPHPFPRP | -0.29 |
| RRIRRRPPRLPRPRPRPALLPRP | -0.0136 |
| RRIRDRPPRLPRPRPRPEYWPRP | 0.0559 |
| RRIRHRPPRLPRPRPRPDQDPRP | -0.0366 |
| RRIRERPPRLPRPRPRPCCEPRP | -0.366 |
| RRIRKRPPRLPRPRPRPRYGPRP | -0.238 |
| RRIRRRPPRLPRPRPRPHAKPRP | 0.0278 |
| RRIRERPPRLPRPRPRPRYLPRP | -0.452 |
| RRIRFRPPRLPRPRPRPLGYPRP | 0.0222 |
| RRIRPRPPRLPRPRPRPWYGPRP | -0.429 |
| RRIRKRPPRLPRPRPRPSKFPRP | -0.16 |
| RRIRWRPPRLPRPRPRPWFLPRP | -0.617 |
| RRIRCRPPRLPRPRPRPDAIPRP | -0.0147 |
| RRIRKRPPRLPRPRPRPRMNPRP | 0.115 |
| RRIRSRPPRLPRPRPRPVTDPRP | 0.102 |
| RRIRKRPPRLPRPRPRPMYTPRP | -0.0983 |
| RRIRIRPPRLPRPRPRPYWRPRP | -0.478 |
| RRIRVRPPRLPRPRPRPDWRPRP | 0.141 |
| RRIRGRPPRLPRPRPRPLNFPRP | -0.0482 |
| RRIRARPPRLPRPRPRPQRNPRP | -0.0146 |
| RRIRRRPPRLPRPRPRPPFPPRP | 0.645 |
| RRIRVRPPRLPRPRPRPPHCPRP | 0.178 |
| RRIRSRPPRLPRPRPRPIMFPRP | -0.304 |

| Sequence | shrunken log2 fold change |
| --- | --- |
| RRIRRRPPRLPRPRPRPIVGPRP | 0.0287 |
| RRIRTRPPRLPRPRPRPWRWPRP | 0.554 |
| RRIRNRPPRLPRPRPRPDRKPRP | -0.00776 |
| RRIRPRPPRLPRPRPRPPESPRP | 0.841 |
| RRIRTRPPRLPRPRPRPQSCPRP | 0.057 |
| RRIRNRPPRLPRPRPRPMCGPRP | -0.301 |
| RRIRIRPPRLPRPRPRPAYYPRP | -0.401 |
| RRIRGRPPRLPRPRPRPHFKPRP | 0.178 |
| RRIRVRPPRLPRPRPRPKDGPRP | 0.0237 |
| RRIRERPPRLPRPRPRPLCNPRP | -0.342 |
| RRIRNRPPRLPRPRPRPVGHPRP | -0.128 |
| RRIRGRPPRLPRPRPRPMVEPRP | 0.446 |
| RRIRIRPPRLPRPRPRPSCLPRP | -0.998 |
| RRIRYRPPRLPRPRPRPMVRPRP | -0.0135 |
| RRIRDRPPRLPRPRPRPDIIPRP | 0.221 |
| RRIRCRPPRLPRPRPRPGRAPRP | 0.453 |
| RRIRIRPPRLPRPRPRPDRFPRP | 0.0544 |
| RRIRVRPPRLPRPRPRPLCWPRP | 0.00832 |
| RRIRQRPPRLPRPRPRPYWVPRP | -0.264 |
| RRIRHRPPRLPRPRPRPRCAPRP | 0.189 |
| RRIRYRPPRLPRPRPRPTWMPRP | 0.0576 |
| RRIRMRPPRLPRPRPRPFAHPRP | -0.00592 |
| RRIRVRPPRLPRPRPRPSELPRP | -0.157 |
| RRIRLRPPRLPRPRPRPHMNPRP | -0.686 |
| RRIRDRPPRLPRPRPRPFEKPRP | 0.00649 |
